Measurements taken from publication PMC3176823, “A Membrane-Bound Vertebrate Globin” (PLoS ONE, 2011).

Target: the molecule itself
Assay: SDS-PAGE + MALDI-TOF; purified GbXΔNC heat-denatured in SDS sample buffer (2.5% β-mercaptoethanol), 15% SDS-PAGE; also 10–15% gradient gels (PhastSystem) in the absence and presence of DTT; bands identified by MALDI-TOF after tryptic digest

B1: N- and C-terminally truncated Danio rerio globin X (GbXΔNC) (domain or fragment, Danio rerio (zebrafish), UniProt A0AC58HMV5 25-184, looked up)
chain: PAGLTANHIRLIKESWRLIQEDIAKVGIIMFVRLFETHPECKDVFFLFRDVEDLERLRTSRELRAHGLRVMSFIEKSVARLDQLERLETLALELGKSHYRYNAPPKYYGYVGAEFICAVRPILKDRWTPELEEAWKTLFQYVTSIMREGFLEEERNKRSN
notes: globin X (GbX) of zebrafish (Danio rerio), amino acids 25 to 184 (the globin core), cloned into pET3a; Heme protein; No tag is mentioned for the pET3a construct; also called recombinant truncated GbX; source: E. coli BL21(DE3)pLysS, purified (ammonium sulfate precipitation, ion-exchange, size exclusion chromatography)
- stoichiometry N: 2
